Stoichiometry N data for 1 substance are collected here from paper PMC6882843.

The target in this assay is ToxT from Vibrio cholerae serogroup O42 strain SCE-256, wild type, purified (Vibrio cholerae serogroup O42 strain SCE-256) (UniProt Q7BGC0). Nature of the assay: SEC-SAXS.

The term stoichiometry N denotes the number of molecules, sites or subunits per partner or assembly. “ToxT from Vibrio cholerae serogroup O42 strain SCE-256, wild type, purified (from UniProt Q7BGC0 1-276) (natural protein)” returned a stoichiometry N of 2.
